The results in this text go back to paper PMC7948595, “1,6-Hexanediol, commonly used to dissolve liquid–liquid phase separated condensates, directly impairs kinase and phosphatase activities” (The Journal of Biological Chemistry, 2021).

The assay concerns the target T1, GST-Cdk7 (2–346) (human, UniProt P50613 2-346).
T1 construct: Cdk7, human, residues 2-346
Nature of the assay: pull-down; 10 µg of purified CDK–cyclin complex immobilised by its GST-tagged subunit on GSH 4B sepharose beads in 100 µl PBS; incubated 1 h in PBS or PBS with 5% 1,6-hexanediol; washed three times; eluted in SDS-sample buffer; Coomassie-stained SDS-PAGE. The note with it: both partners purified.

T1 sequence (P50613 2-346): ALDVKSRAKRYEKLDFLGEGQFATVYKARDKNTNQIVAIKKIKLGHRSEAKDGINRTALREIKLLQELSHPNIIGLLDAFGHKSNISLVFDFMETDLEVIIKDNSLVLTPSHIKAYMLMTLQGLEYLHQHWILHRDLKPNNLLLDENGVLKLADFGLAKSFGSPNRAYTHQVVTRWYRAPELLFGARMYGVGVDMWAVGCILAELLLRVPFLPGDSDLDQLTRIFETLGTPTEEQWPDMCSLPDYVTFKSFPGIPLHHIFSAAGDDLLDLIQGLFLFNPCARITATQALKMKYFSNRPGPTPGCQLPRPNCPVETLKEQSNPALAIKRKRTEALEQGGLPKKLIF

B1: Cyclin H (1–323) (natural protein, human, UniProt P51946 1-323, looked up)
chain: MYHNSSQKRHWTFSSEEQLARLRADANRKFRCKAVANGKVLPNDPVFLEPHEEMTLCKYYEKRLLEFCSVFKPAMPRSVVGTACMYFKRFYLNNSVMEYHPRIIMLTCAFLACKVDEFNVSSPQFVGNLRESPLGQEKALEQILEYELLLIQQLNFHLIVHNPYRPFEGFLIDLKTRYPILENPEILRKTADDFLNRIALTDAYLLYTPSQIALTAILSSASRAGITMESYLSESLMLKENRTCLSQLLDIMKSMRNLVKKYEPPRSEEVAVLKQKLERCHSAELALNVITKKRKGYEDDDYVSKKSKHEEEEWTDDDLVESL
notes: Cyclin H, human, residues 1-323; also called CycH
In the case of B1, the binding result is listed as “binds”.
